Results reported in patent US20050278809A1 (HER MAJESTY THE QUEEN IN RIGHT OF CANADA AS REPRESENTED BY …, published 2005).
Each block holds one binder with its values, some of them ahead of it.

Key:
Experiment in all cases: GST pulldown, [35S]Met-labelled in vitro translated protein
[1] = target: T1, GST-HDA19 fusion protein (recombinant Arabidopsis thaliana HDA19 fused to glutathione S-transferase) (Arabidopsis thaliana, UniProt O22446 1-501)
T1 construct: Expressed in E. coli BL21-CodonPlus (DE3)-RP from pGEX-6P-2 (SalI/NotI) and purified under non-denaturing conditions; also called recombinant HDA19; not shown: glutathione S-transferase (GST) encoded by vector pGEX-6P-2 (Amersham Pharmacia)
T1 sequence (looked up): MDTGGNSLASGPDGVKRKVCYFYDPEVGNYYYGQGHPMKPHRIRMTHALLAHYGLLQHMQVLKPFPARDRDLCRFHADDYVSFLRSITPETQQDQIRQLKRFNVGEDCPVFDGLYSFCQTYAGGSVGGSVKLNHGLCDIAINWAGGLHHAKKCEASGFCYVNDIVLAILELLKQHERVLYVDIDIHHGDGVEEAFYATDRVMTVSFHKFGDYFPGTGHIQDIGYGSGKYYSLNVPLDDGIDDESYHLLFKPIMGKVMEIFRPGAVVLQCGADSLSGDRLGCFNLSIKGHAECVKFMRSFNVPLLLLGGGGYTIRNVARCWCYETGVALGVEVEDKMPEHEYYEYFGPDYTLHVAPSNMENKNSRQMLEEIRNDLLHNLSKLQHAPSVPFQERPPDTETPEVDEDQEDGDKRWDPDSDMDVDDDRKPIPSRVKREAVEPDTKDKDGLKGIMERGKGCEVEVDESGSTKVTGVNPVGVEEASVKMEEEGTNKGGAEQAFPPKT

[2] = target: T2, GST-Gcn5 fusion protein (recombinant Arabidopsis HAT Gcn5 fused to glutathione S-transferase) (Arabidopsis, UniProt Q9AR19 1-568)
T2 construct: Expressed in E. coli from pGEX-6P-2 (SalI/NotI); also called GCN5 (HAT); histone acetyltransferase (HAT); not shown: glutathione S-transferase (GST) encoded by vector pGEX-6P-2 (Amersham Pharmacia)
T2 sequence (looked up): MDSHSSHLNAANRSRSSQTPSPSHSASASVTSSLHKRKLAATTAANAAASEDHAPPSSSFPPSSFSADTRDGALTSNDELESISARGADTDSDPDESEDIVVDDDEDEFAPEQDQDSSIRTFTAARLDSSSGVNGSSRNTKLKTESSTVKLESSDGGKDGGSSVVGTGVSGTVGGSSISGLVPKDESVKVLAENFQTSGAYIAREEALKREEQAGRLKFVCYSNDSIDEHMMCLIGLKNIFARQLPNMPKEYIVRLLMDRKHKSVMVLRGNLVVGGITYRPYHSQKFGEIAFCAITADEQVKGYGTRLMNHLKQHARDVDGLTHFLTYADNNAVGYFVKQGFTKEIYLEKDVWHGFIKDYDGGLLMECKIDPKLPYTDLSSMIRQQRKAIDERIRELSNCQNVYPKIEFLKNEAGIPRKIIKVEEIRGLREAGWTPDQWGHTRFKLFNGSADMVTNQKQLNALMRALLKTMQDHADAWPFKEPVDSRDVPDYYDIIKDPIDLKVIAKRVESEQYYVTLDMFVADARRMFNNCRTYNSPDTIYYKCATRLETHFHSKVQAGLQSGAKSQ

[3] = target: T3, GST alone (negative control) (UniProt P08515 1-218 = GST)
T3 construct: Negative control in the GST pulldown assays (6 µg per reaction)
T3 sequence (P08515 whole entry): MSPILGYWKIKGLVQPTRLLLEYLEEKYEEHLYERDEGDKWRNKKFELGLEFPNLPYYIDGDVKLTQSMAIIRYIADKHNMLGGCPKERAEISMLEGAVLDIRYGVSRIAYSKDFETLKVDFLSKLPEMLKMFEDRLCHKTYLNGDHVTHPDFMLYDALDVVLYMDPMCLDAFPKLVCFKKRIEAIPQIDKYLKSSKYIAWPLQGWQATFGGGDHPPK

B1: ΔbnKCP1^1-160 (residues 1-160), in vitro translated (other)
chain: MAGGGPTFSIELSAYGSDLPTDKASGDIPNEEGSGLSRVGSGIWSGRTVDYSSESSSSIGTPGDSEEEDEESEEDNDEEELGLASLRSLEDSLPSKGLSSHYKGKSKSFGNLGEIGSVKEVPKQENPLNKKRRLQIYNKLARKSFYSWQNPKSMPLLPVH
modifications: labeled with [^35S]methionine
notes: C-terminal truncation lacking the KID domain, translated in vitro from pET-28b; Vector-encoded residues are not described
- binding result [1]: no binding
- binding result [2]: no binding

B2: ΔbnKCP1^1-80 (residues 1-80), in vitro translated (other)
chain: MAGGGPTFSIELSAYGSDLPTDKASGDIPNEEGSGLSRVGSGIWSGRTVDYSSESSSSIGTPGDSEEEDEESEEDNDEEE
modifications: labeled with [^35S]methionine
notes: as for B1
- binding result [1]: no binding
- binding result [2]: no binding

Other lines, results leading:

- binding result [3]: no binding
B3: bnKCP1 (B. napus KID-containing protein 1), full-length, in vitro translated (other)
chain: MAGGGPTFSIELSAYGSDLPTDKASGDIPNEEGSGLSRVGSGIWSGRTVDYSSESSSSIGTPGDSEEEDEESEEDNDEEELGLASLRSLEDSLPSKGLSSHYKGKSKSFGNLGEIGSVKEVPKQENPLNKKRRLQIYNKLARKSFYSWQNPKSMPLLPVHEDNDDEEGDDGDLSDEERGGDVLARRPSFKNRALKSMSCFALSDLQEEEEEEEDE
modifications: labeled with [^35S]methionine
notes: Produced by TNT-Quick coupled in vitro transcription/translation from pET-28b (HindIII/XhoI); also called wild type bnKCP1; pET-28b bnKCP1

- binding result [1]: no binding
B4: ΔBnSCL1^1-145, in vitro translated (other, not shown: small tags and cut ends)
chain: MDEHAMRSMDWDSIMKELEVDDDSAPYQLQPSSFNLPVFPDIDSSDVYPGPNQITGYGFNSLDSVDNGGFDYIEDLIRVVDCIESDELHLAHVVLSQLNQRLQTSAGRPLQRAAFYFKEALGSLLTGTNRNQLFSWSDIVQKIRA
modifications: labeled with [^35S]methionine
notes: C-terminal truncation lacking the VHIID motif

- binding result [3]: no binding
B5: BnSCL1 (Brassica napus SCARECROW-like protein 1), full-length, in vitro translated (other, not shown: small tags and cut ends)
chain: MDEHAMRSMDWDSIMKELEVDDDSAPYQLQPSSFNLPVFPDIDSSDVYPGPNQITGYGFNSLDSVDNGGFDYIEDLIRVVDCIESDELHLAHVVLSQLNQRLQTSAGRPLQRAAFYFKEALGSLLTGTNRNQLFSWSDIVQKIRAIKEFSGISPIPLFSHFTANQAILDSLSSQSSSPFVHVVDFEIGFGGQYASLMREIAEKSANGGFLRVTAVVAEDCAVETRLVKENLTQFAAEMKIRFQIEFVLMKTFEILSFKAIRFVDGERTVVLISPAIFRRVIGIAEFVNNLGRVSPNVVVFVDSEGCTETAGSGSFRREFVSAFEFYTMVLESLDAAAPPGDLVKKIVETFLLRPKISAAVETAANRRSAGQMTWREMLCAAGMRPVQLSQFADFQAECLLEKAQVRGFHVAKRQGELVLCWHGRALVATSAWRF
modifications: labeled with [^35S]methionine
notes: also called wild type BnSCL1
